Experimental data reported in patent US20200297760A1 (JUNO THERAPEUTICS, published 2020).

B1: FWVKRGRKK (peptide)
peptide: FWVKRGRKK
notes: synthetic 9-mer of the CD28-4-1BB junction; mutation: none
B2: FWVKRGSKK (peptide)
peptide: FWVKRGSKK
notes: synthetic 9-mer variant; the entry already carries the change
B3: FWVARGRKK (peptide)
peptide: FWVARGRKK
notes: as for B2
B4: FWVHRGRKK (peptide)
peptide: FWVHRGRKK
notes: as for B2
B5: FWVQRGAKK (peptide)
peptide: FWVQRGAKK
notes: synthetic 9-mer variant; the entry already carries the changes
B6: FWVKRGHKK (peptide)
peptide: FWVKRGHKK
notes: as for B2
B7: FWVSRGRKK (peptide)
peptide: FWVSRGRKK
notes: as for B2
B8: FWVQRGNKK (peptide)
peptide: FWVQRGNKK
notes: as for B5
B9: FWVKRGLKK (peptide)
peptide: FWVKRGLKK
notes: as for B2
B10: FWVLRGRKK (peptide)
peptide: FWVLRGRKK
notes: as for B2
B11: FWVKRGAKK (peptide)
peptide: FWVKRGAKK
notes: as for B2
B12: FWVQRGRKK (peptide)
peptide: FWVQRGRKK
notes: as for B2
B13: FWVQRGSKK (peptide)
peptide: FWVQRGSKK
notes: as for B5
B14: FWVKRGNKK (peptide)
peptide: FWVKRGNKK
notes: as for B2
B15: IIFWVKRGH (peptide)
peptide: IIFWVKRGH
notes: as for B2
B16: IIFWVQRGN (peptide)
peptide: IIFWVQRGN
notes: as for B5
B17: IIFWVQRGS (peptide)
peptide: IIFWVQRGS
notes: as for B5
B18: IFWVKRGRK (peptide)
peptide: IFWVKRGRK
notes: as for B1
B19: IFWVLRGRK (peptide)
peptide: IFWVLRGRK
notes: as for B2
B20: IFWVQRGSK (peptide)
peptide: IFWVQRGSK
notes: as for B5

molecular target: HLA-B*08:01 (recombinant MHC class I molecule) (human); assay: REVEAL MHC-peptide binding assay, recombinant HLA-B*08:01
Experimental: (§1) Specifically, assessment was of a series of overlapping 9-mer peptides derived from the sequence […] (set forth in SEQ ID NO: 7), which contains a portion of the CD28 transmembrane domain and 4-1BB costimulatory domain spanning the junction between the domains (bond joining the two amino acids noted in underline). In addition, a series of overlapping 9-mer peptides of each of a number of different variants of this portion also were assessed, each variant containing a mutation or mutations in this region as described in Example 2.
(§2) The various 9-mer overlapping peptides were synthesized and their purity tested by MALDI-TOF Mass Spectrometry.

In Vitro Score	Binder
1.9 score, % of positive control peptide	AFIIFWVKR [Synthetic peptide AFIIFWVKR]
0.2 score, % of positive control peptide	AFIIFWVLR [Synthetic peptide AFIIFWVLR]
0 score, % of positive control peptide	AFIIFWVQR [Synthetic peptide AFIIFWVQR]
0 score, % of positive control peptide	FWVKRGRKK [Synthetic peptide FWVKRGRKK]
0 score, % of positive control peptide	FWVQRGNKK [Synthetic peptide FWVQRGNKK]
0 score, % of positive control peptide	FWVQRGAKK [Synthetic peptide FWVQRGAKK]
0 score, % of positive control peptide	FWVARGRKK [Synthetic peptide FWVARGRKK]
0 score, % of positive control peptide	FWVQRGSKK [Synthetic peptide FWVQRGSKK]
0.4 score, % of positive control peptide	FWVKRGHKK [Synthetic peptide FWVKRGHKK]
0 score, % of positive control peptide	FWVHRGRKK [Synthetic peptide FWVHRGRKK]
1.9 score, % of positive control peptide	FWVQRGRKK [Synthetic peptide FWVQRGRKK]
0 score, % of positive control peptide	FWVLRGRKK [Synthetic peptide FWVLRGRKK]
0.1 score, % of positive control peptide	FWVKRGNKK [Synthetic peptide FWVKRGNKK]
0 score, % of positive control peptide	FWVSRGRKK [Synthetic peptide FWVSRGRKK]
0.1 score, % of positive control peptide	FWVKRGSKK [Synthetic peptide FWVKRGSKK]
6.3 score, % of positive control peptide	FWVKRGLKK [Synthetic peptide FWVKRGLKK]
0.3 score, % of positive control peptide	FWVKRGAKK [Synthetic peptide FWVKRGAKK]
0.1 score, % of positive control peptide	FIIFWVKRG [Synthetic peptide FIIFWVKRG]
0.4 score, % of positive control peptide	FIIFWVSRG [Synthetic peptide FIIFWVSRG]

In Vitro Score	Binder
0.6 score, % of positive control peptide	FIIFWVQRG [Synthetic peptide FIIFWVQRG]
0.2 score, % of positive control peptide	FIIFWVLRG [Synthetic peptide FIIFWVLRG]
0 score, % of positive control peptide	VAFIIFWVA [Synthetic peptide VAFIIFWVA]
0 score, % of positive control peptide	VAFIIFWVH [Synthetic peptide VAFIIFWVH]
0 score, % of positive control peptide	VAFIIFWVL [Synthetic peptide VAFIIFWVL]
0.2 score, % of positive control peptide	VAFIIFWVQ [Synthetic peptide VAFIIFWVQ]
0.1 score, % of positive control peptide	IIFWVKRGH [Synthetic peptide IIFWVKRGH]
0.1 score, % of positive control peptide	IIFWVQRGS [Synthetic peptide IIFWVQRGS]
0 score, % of positive control peptide	IIFWVQRGN [Synthetic peptide IIFWVQRGN]
28.5 score, % of positive control peptide	WVKRGRKKL [Synthetic peptide WVKRGRKKL]
4.3 score, % of positive control peptide	WVKRGRKKS [Synthetic peptide WVKRGRKKS]
6.2 score, % of positive control peptide	WVSRGRKKL [Synthetic peptide WVSRGRKKL]
65.7 score, % of positive control peptide	WVKRGLKKL [Synthetic peptide WVKRGLKKL]
4 score, % of positive control peptide	WVLRGRKKL [Synthetic peptide WVLRGRKKL]
11.4 score, % of positive control peptide	WVQRGAKKL [Synthetic peptide WVQRGAKKL]
19.2 score, % of positive control peptide	WVHRGRKKL [Synthetic peptide WVHRGRKKL]
0.4 score, % of positive control peptide	IFWVKRGRK [Synthetic peptide IFWVKRGRK]
0 score, % of positive control peptide	IFWVQRGSK [Synthetic peptide IFWVQRGSK]
0 score, % of positive control peptide	IFWVLRGRK [Synthetic peptide IFWVLRGRK]

molecular target: T1, HLA-A*03:01 (human); assay: REVEAL MHC-peptide binding assay, recombinant HLA
T1 construct: recombinant MHC class I molecule incubated with the synthetic peptide (REVEAL, ProImmune)
Experimental: as §1, §2

In Vitro Score	Binder
2.2 % of positive control peptide	B1
5.9 % of positive control peptide	B2
5 % of positive control peptide	B3
3.6 % of positive control peptide	B4
2.7 % of positive control peptide	B5
4.1 % of positive control peptide	B6
2.9 % of positive control peptide	B7
1.3 % of positive control peptide	B8
2.7 % of positive control peptide	B9
0.4 % of positive control peptide	B10
4.7 % of positive control peptide	B11
6.4 % of positive control peptide	B12
1.9 % of positive control peptide	B13
3.6 % of positive control peptide	B14
26.6 % of positive control peptide	B15
3.6 % of positive control peptide	B16
4.5 % of positive control peptide	B17
20.5 % of positive control peptide	B18
19.5 % of positive control peptide	B19
20.3 % of positive control peptide	B20

molecular target: T2, HLA-A*02:01 (human); assay: REVEAL MHC-peptide binding assay, recombinant HLA
T2 construct: recombinant MHC class I molecule incubated with the synthetic peptide (REVEAL, ProImmune)
Experimental: as §1, §2

In Vitro Score	Binder
3.5 % of positive control peptide	B1
1.9 % of positive control peptide	B2
13.5 % of positive control peptide	B3
1.6 % of positive control peptide	B4
2.2 % of positive control peptide	B5
2.6 % of positive control peptide	B6
1.5 % of positive control peptide	B7
3.1 % of positive control peptide	B8
3.3 % of positive control peptide	B10
4.3 % of positive control peptide	B11
5.2 % of positive control peptide	B12
0.8 % of positive control peptide	B13
5.3 % of positive control peptide	B15
13 % of positive control peptide	B16
22.4 % of positive control peptide	B17
4.5 % of positive control peptide	B18
2.9 % of positive control peptide	B19
33.5 % of positive control peptide	B20

molecular target: HLA-A*11:01 (recombinant MHC class I molecule) (human); assay: REVEAL MHC-peptide binding assay, recombinant HLA-A*11:01
Experimental: as §1, §2

In Vitro Score	Binder
25.9 score, % of positive control peptide	AFIIFWVKR [Synthetic peptide AFIIFWVKR]
17.2 score, % of positive control peptide	AFIIFWVLR [Synthetic peptide AFIIFWVLR]
15 score, % of positive control peptide	AFIIFWVQR [Synthetic peptide AFIIFWVQR]
6.5 score, % of positive control peptide	FWVKRGRKK [Synthetic peptide FWVKRGRKK]
5.9 score, % of positive control peptide	FWVQRGNKK [Synthetic peptide FWVQRGNKK]
18.3 score, % of positive control peptide	FWVQRGAKK [Synthetic peptide FWVQRGAKK]
6.8 score, % of positive control peptide	FWVQRGSKK [Synthetic peptide FWVQRGSKK]
27.6 score, % of positive control peptide	FWVKRGHKK [Synthetic peptide FWVKRGHKK]
5.6 score, % of positive control peptide	FWVHRGRKK [Synthetic peptide FWVHRGRKK]
5.7 score, % of positive control peptide	FWVQRGRKK [Synthetic peptide FWVQRGRKK]
5 score, % of positive control peptide	FWVLRGRKK [Synthetic peptide FWVLRGRKK]
7.3 score, % of positive control peptide	FWVKRGNKK [Synthetic peptide FWVKRGNKK]
6.3 score, % of positive control peptide	FWVSRGRKK [Synthetic peptide FWVSRGRKK]
5.6 score, % of positive control peptide	FWVKRGSKK [Synthetic peptide FWVKRGSKK]
25.3 score, % of positive control peptide	FWVKRGLKK [Synthetic peptide FWVKRGLKK]
13.2 score, % of positive control peptide	FWVKRGAKK [Synthetic peptide FWVKRGAKK]
0.4 score, % of positive control peptide	FIIFWVKRG [Synthetic peptide FIIFWVKRG]
5.1 score, % of positive control peptide	FIIFWVSRG [Synthetic peptide FIIFWVSRG]
1.5 score, % of positive control peptide	FIIFWVQRG [Synthetic peptide FIIFWVQRG]

In Vitro Score	Binder
2.4 score, % of positive control peptide	FIIFWVLRG [Synthetic peptide FIIFWVLRG]
2.8 score, % of positive control peptide	VAFIIFWVA [Synthetic peptide VAFIIFWVA]
12.3 score, % of positive control peptide	VAFIIFWVH [Synthetic peptide VAFIIFWVH]
0.2 score, % of positive control peptide	VAFIIFWVL [Synthetic peptide VAFIIFWVL]
3.9 score, % of positive control peptide	VAFIIFWVQ [Synthetic peptide VAFIIFWVQ]
19.5 score, % of positive control peptide	IIFWVKRGH [Synthetic peptide IIFWVKRGH]
16.9 score, % of positive control peptide	IIFWVQRGS [Synthetic peptide IIFWVQRGS]
29 score, % of positive control peptide	IIFWVQRGN [Synthetic peptide IIFWVQRGN]
4.8 score, % of positive control peptide	WVKRGRKKL [Synthetic peptide WVKRGRKKL]
6.7 score, % of positive control peptide	WVKRGRKKS [Synthetic peptide WVKRGRKKS]
5.9 score, % of positive control peptide	WVQRGSKKL [Synthetic peptide WVQRGSKKL]
4.4 score, % of positive control peptide	WVSRGRKKL [Synthetic peptide WVSRGRKKL]
22.1 score, % of positive control peptide	WVKRGLKKL [Synthetic peptide WVKRGLKKL]
3.2 score, % of positive control peptide	WVLRGRKKL [Synthetic peptide WVLRGRKKL]
3.8 score, % of positive control peptide	WVQRGAKKL [Synthetic peptide WVQRGAKKL]
5.6 score, % of positive control peptide	WVHRGRKKL [Synthetic peptide WVHRGRKKL]
29.3 score, % of positive control peptide	IFWVKRGRK [Synthetic peptide IFWVKRGRK]
103 score, % of positive control peptide	IFWVQRGSK [Synthetic peptide IFWVQRGSK]
29.3 score, % of positive control peptide	IFWVLRGRK [Synthetic peptide IFWVLRGRK]
